# Measured values from the supplement of paper PMC11246515.
# ± gives the standard deviation of the averaged measurements.
# Experiment: total protein half-life in vivo (active degradation + dilution); higher = more stable protein
# [1] = E. coli NCM3722 delta-clpP delta-lon delta-hslV, growth: N-lim chemostat, doubling time 6 h
# [2] = E. coli NCM3722 delta-clpP, growth: N-lim chemostat, doubling time 6 h
# [3] = E. coli NCM3722 delta-hslV, growth: N-lim chemostat, doubling time 6 h
# [4] = E. coli NCM3722 delta-lon, growth: N-lim chemostat, doubling time 6 h
# [5] = E. coli NCM3722 delta-smpB, growth: N-lim chemostat, doubling time 6 h
# [6] = wild type E. coli NCM3722, growth: C-lim chemostat, doubling time 3 h
# [7] = wild type E. coli NCM3722, growth: C-lim chemostat, doubling time 6 h
# [8] = wild type E. coli NCM3722, growth: C-lim chemostat, doubling time 12 h
# [9] = wild type E. coli NCM3722, growth: N-lim chemostat, doubling time 6 h
# [10] = wild type E. coli NCM3722, growth: N-lim chemostat, doubling time 12 h
# [11] = wild type E. coli NCM3722, growth: P-lim chemostat, doubling time 6 h
# [12] = wild type E. coli NCM3722, growth: P-lim chemostat, doubling time 12 h
Sequence,total protein half-life in vivo [1] [h],total protein half-life in vivo [2] [h],total protein half-life in vivo [3] [h],total protein half-life in vivo [4] [h],total protein half-life in vivo [5] [h],total protein half-life in vivo [6] [h],total protein half-life in vivo [7] [h],total protein half-life in vivo [8] [h],total protein half-life in vivo [9] [h],total protein half-life in vivo [10] [h],total protein half-life in vivo [11] [h],total protein half-life in vivo [12] [h]
MSQTVHFQGNPVTVANSIPQAGSKAQTFTLVAKDLSDVTLGQFAGKRKVLNIFPSIDTGVCAASVRKFNQLATEIDNTVVLCISADLPFAQSRFCGAEGLNNVITLSTFRNAEFLQAYGVAIADGPLKGLAARAVVVIDENDNVIFSQLVDEITTEPDYEAALAVLKA [P0A862],5.35 ± 0.21,5.2 ± 0.74,5.25 ± 0.47,4.96 ± 0.085,4.739 ± 0.047,3.16 ± 0.047,6.01 ± 0.23,10.8 ± 1.2,5.01 ± 0.18,9.45 ± 1.1,6.09 ± 0.53,13.3 ± 0.69
MSQVLITGATGLVGGHLLRMLINEPKVNAIAAPTRRPLGDMPGVFNPHDPQLSDALAQVTDPIDIVFCCLGTTRREAGSKEAFIHADYTLVVDTALTGRRLGAQHMLVVSAMGANAHSPFFYNRVKGEMEEALIAQNWPKLTIARPSMLLGDRSKQRMNETLFAPLFRLLPGNWKSIDARDVARVMLAESMRPEHEGVTILSSSELRKRAE,6.13 ± 0.065,5.36 ± 0.4,5.98 ± 0.48,6.26 ± 0.69,–,3.24 ± 0.14,–,–,5.69 ± 1.1,–,–,–
MSRFVPRIIPFYLLLLVAGGTANAQSTFEQKAANPFDNNNDGLPDLGMAPENHDGEKHFAEIVKDFGETSMNDNGLDTGEQAKAFALGKVRDALSQQVNQHVESWLSPWGNASVDVKVDNEGHFTGSRGSWFVPLQDNDRYLTWSQLGLTQQDNGLVSNVGVGQRWARGNWLVGYNTFYDNLLDENLQRAGFGAEAWGEYLRLSANFYQPFAAWHEQTATQEQRMARGYDLTARMRMPFYQHLNTSVSLEQYFGDRVDLFNSGTGYHNPVALSLGLNYTPVPLVTVTAQHKQGESGENQNNLGLNLNYRFGVPLKKQLSAGEVAESQSLRGSRYDNPQRNNLPTLEYRQRKTLTVFLATPPWDLKPGETVPLKLQIRSRYGIRQLIWQGDTQILSLTPGAQANSAEGWTLIMPDWQNGEGASNHWRLSVVVEDNQGQRVSSNEITLTLVEPFDALSNDELRWEP,–,6.12,5.24 ± 1.5,5.79 ± 1.8,5.36 ± 0.54,–,–,–,6.73 ± 1,14.3 ± 1.6,–,–
MSRIIMLIPTGTSVGLTSVSLGVIRAMERKGVRLSVFKPIAQPRTGGDAPDQTTTIVRANSSTTTAAEPLKMSYVEGLLSSNQKDVLMEEIVANYHANTKDAEVVLVEGLVPTRKHQFAQSLNYEIAKTLNAEIVFVMSQGTDTPEQLKERIELTRNSFGGAKNTNITGVIVNKLNAPVDEQGRTRPDLSEIFDDSSKAKVNNVDPAKLQESSPLPVLGAVPWSFDLIATRAIDMARHLNATIINEGDINTRRVKSVTFCARSIPHMLEHFRAGSLLVTSADRPDVLVAACLAAMNGVEIGALLLTGGYEMDARISKLCERAFATGLPVFMVNTNTWQTSLSLQSFNLEVPVDDHERIEKVQEYVANYINADWIESLTATSERSRRLSPPAFRYQLTELARKAGKRIVLPEGDEPRTVKAAAICAERGIATCVLLGNPAEINRVAASQGVELGAGIEIVDPEVVRESYVGRLVELRKNKGMTETVAREQLEDNVVLGTLMLEQDEVDGLVSGAVHTTANTIRPPLQLIKTAPGSSLVSSVFFMLLPEQVYVYGDCAINPDPTAEQLAEIAIQSADSAAAFGIEPRVAMLSYSTGTSGAGSDVEKVREATRLAQEKRPDLMIDGPLQYDAAVMADVAKSKAPNSPVAGRATVFIFPDLNTGNTTYKAVQRSADLISIGPMLQGMRKPVNDLSRGALVDDIVYTIALTAIQSAQQQ [P0A9M8],6.116 ± 0.01,5.89 ± 0.68,6.22 ± 0.38,6.08 ± 0.32,5.973 ± 0.042,3.14 ± 0.039,5.61 ± 0.24,11 ± 0.26,6.14 ± 0.12,11.99 ± 0.054,6.32 ± 0.58,11.8 ± 0.43
MSRKDLANAIRALSMDAVQKANSGHPGAPMGMADIAEVLWNDFLKHNPTDPTWYDRDRFILSNGHASMLLYSLLHLTGYDLPLEELKNFRQLHSKTPGHPEIGYTPGVETTTGPLGQGLANAVGLAIAERTLAAQFNQPDHEIVDHFTYVFMGDGCLMEGISHEVCSLAGTLGLGKLIGFYDHNGISIDGETEGWFTDDTAKRFEAYHWHVIHEIDGHDPQAVKEAILEAQSVKDKPSLIICRTVIGFGSPNKAGKEEAHGAPLGEEEVALARQKLGWHHPPFEIPKEIYHAWDAREKGEKAQQSWNEKFAAYKKAHPQLAEEFTRRMSGGLPKDWEKTTQKYINELQANPAKIATRKASQNTLNAYGPMLPELLGGSADLAPSNLTIWKGSVSLKEDPAGNYIHYGVREFGMTAIANGIAHHGGFVPYTATFLMFVEYARNAARMAALMKARQIMVYTHDSIGLGEDGPTHQAVEQLASLRLTPNFSTWRPCDQVEAAVGWKLAVERHNGPTALILSRQNLAQVERTPDQVKEIARGGYVLKDSGGKPDIILIATGSEMEITLQAAEKLAGEGRNVRVVSLPSTDIFDAQDEEYRESVLPSNVAARVAVEAGIADYWYKYVGLKGAIVGMTGYGESAPADKLFPFFGFTAENIVAKAHKVLGVKGA,4.98 ± 0.07,5.07 ± 0.55,4.95 ± 0.06,5.06 ± 0.13,4.75 ± 0.27,3.08 ± 0.16,5.63 ± 0.22,10.8 ± 0.69,4.52 ± 0.16,8.32 ± 0.16,5.83 ± 0.35,11.5 ± 0.12
MSRLVVVSNRIAPPDEHAASAGGLAVGILGALKAAGGLWFGWSGETGNEDQPLKKVKKGNITWASFNLSEQDLDEYYNQFSNAVLWPAFHYRLDLVQFQRPAWDGYLRVNALLADKLLPLLQDDDIIWIHDYHLLPFAHELRKRGVNNRIGFFLHIPFPTPEIFNALPTYDTLLEQLCDYDLLGFQTENDRLAFLDCLSNLTRVTTRSAKSHTAWGKAFRTEVYPIGIEPKEIAKQAAGPLPPKLAQLKAELKNVQNIFSVERLDYSKGLPERFLAYEALLEKYPQHHGKIRYTQIAPTSRGDVQAYQDIRHQLENEAGRINGKYGQLGWTPLYYLNQHFDRKLLMKIFRYSDVGLVTPLRDGMNLVAKEYVAAQDPANPGVLVLSQFAGAANELTSALIVNPYDRDEVAAALDRALTMSLAERISRHAEMLDVIVKNDINHWQECFISDLKQIVPRSAESQQRDKVATFPKLA,5.02 ± 0.71,4.68 ± 0.38,2.95 ± 0.046,3.23 ± 0.4,2.85 ± 0.093,2.4 ± 0.054,3.858 ± 0.033,6.061 ± 0.06,3.02 ± 0.29,4.47 ± 0.49,3.72 ± 0.24,6.83 ± 0.3
